Measurements from patent US20250152742A1, “COMPOSITIONS AND METHODS FOR NEUROLOGICAL DISEASES” (Trames Bio, Inc., priority 2022, published 2025).

Assays:
Assay type in all cases: cell-based
[1] = system: engineered chimeric receptor SEQ ID NO: 33 and its mutants (human α7-nAChR ligand binding domain / human GlyRα1 ion pore domain) in Lenti-X 293T cells; test: YFP fluorescence quenching anion reporter plate reader assay (percent quench, EC50); conditions: for YFP fluorescence quenching using CNL001 (percent quench): receptor named in row; for YFP fluorescence quenching using Varenicline, 3 nM var: ligand Varenicline 3 nM; for YFP fluorescence quenching using Varenicline, 30 nM var: ligand Varenicline 30 nM; for YFP fluorescence quenching using Varenicline, 300 nM var: ligand Varenicline 300 nM; for YFP fluorescence quenching using Varenicline, 500 nM var: ligand Varenicline 500 nM; for YFP fluorescence quenching using Varenicline, 1 uM var: ligand Varenicline 1 uM
In short: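 Lenti-X 293T cells co-expressing an anion-quenchable YFP were transiently transfected with receptor DNA, then ligand was added in NaI-substituted buffer (pH 7.2) after 30 min at 37 °C. Fluorescence was read about 2 min; percent quench = mean of last 10 s over 15 s pre-ligand baseline.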

rat hippocampal neurons [2] = test: Evoked rheobase shift, rat hippocampal neurons (current clamp)
Description: No holding current was applied to the membrane for cells included in the final datasets. Data acquisition settings and analysis methods were the same as for the DRG rheobase experiments.
Hippocampal neurons: Hippocampal rheobase experiments were performed in current clamp mode using a potassium-based internal solution containing (in mM): 115 potassium D-gluconate (G4500), 13 potassium chloride (P9333), 1 magnesium chloride hexahydrate (M2670), 5 magnesium ATP (A9187), 10 HEPES (54457), and 0.5 EGTA (3777) (pH=7.2 with potassium hydroxide, osmolarity=290-295 mOsm, calculated liquid junction potential=−14.9 mV. NBQX (10 μM) and AP5 (50 μM) were included in the bath to block excitatory synaptic transmission. To measure HC input resistance and rheobase, 500 ms current steps (−200 pA to 700 pA) were applied the membrane in the presence and absence of a compound. No holding current was applied to the membrane for cells included in the final datasets. Data acquisition settings and analysis methods were the same as for the DRG rheobase experiments.

rat hippocampal neurons [3] = test: Spontaneous action potential firing rate, hippocampal neurons (current clamp)
Description: Spontaneous activity was recorded in gapfree mode, in the presence and absence of a compound. Data were acquired at 10 kHz, with Bessel filter at 2 kHz and series resistance compensation at 100%. No holding current was applied to the membrane. […] For Clampfit, threshold-based event detection was run separately for each epoch to detect action potentials. For the custom Python code, a peak-finding package was used to automatically detect action potentials (SciPy). For both methods, minimum height, average height, maximum height were measured and frequency was calculated as the number of events in the epoch divided by the length of time of the epoch. For Clampfit, the resting membrane potential was measured at 3 points between events and averaged for each epoch. […] For both methods, membrane potential was corrected for the calculated liquid junction potential. […]
Hippocampal spontaneous action potential experiments: Hippocampal spontaneous action potentials were recorded in current clamp mode using a potassium-based internal solution containing (in mM): 115 potassium D-gluconate (G4500), 13 potassium chloride (P9333), 1 magnesium chloride hexahydrate (M2670), 5 magnesium ATP (A9187), 10 HEPES (54457), and 0.5 EGTA (3777) (pH=7.2, osmolarity=290-295 mOsm, calculated liquid junction potential=−14.9 mV). Spontaneous activity was recorded in gapfree mode, in the presence and absence of a compound. […]

B1: CODA1140: engineered receptor: R101F, L131N, S172D in SEQ ID NO: 33 (protein)
chain: MRCSPGGVWLALAASLLHVSLQGEFQRKLYKELVKNYNPLERPVANDSQPLTVYFSLSLLQIMDVDEKNQVLTTNIWLQMSWTDHYLQWNVSEYPGVKTVFFPDGQIWKPDILLYNSADERFDATFHTNVNVNSSGHCQYLPPGIFKSSCPMDLKNFPMDVQTCKLKFGSWDYGGWSLDLQMQEADISGYIPNGEWDLVGIPGKRSERFYECCKEPYPDVTFTVTMRRRMGYYLIQMYIPSLLIVILSWISFWINMDAAPARVGLGITTVLTMTTQSSGSRASLPKVSYVKAIDIWMAVCLLFVFSALLEYAAVNFVSRQHKELLRFRRKRRHHKSPMLNLFQEDEAGEGRFNFSAYGMGPACLQAKDGISVKGANNSNTTNPPPAPSKSPEEMRKLFIQRAKKIDKISRIGFPMAFLIFNMFYWIIYKIVRREDVHNQ
modifications: synthetic sequence of chimeric LGIC
YFP fluorescence quenching using CNL001 (percent quench) ([1]; 1 nM CNL001, first column so headed): 52.592% | YFP fluorescence quenching using CNL001 (percent quench) ([1]; 1 nM CNL001, second column so headed): 61.248% | YFP fluorescence quenching (percent quench) ([1]; 1 nM CNL002): 0.337% | YFP fluorescence quenching using CNL001 (percent quench) ([1]; 10 nM CNL001, first column so headed): 71.678% | YFP fluorescence quenching using CNL001 (percent quench) ([1]; 10 nM CNL001, second column so headed): 71.881% | YFP fluorescence quenching (percent quench) ([1]; 10 nM CNL002): 59.894% | YFP fluorescence quenching using CNL001 (percent quench) ([1]; 50 nM CNL001, first column so headed): 73.807% | YFP fluorescence quenching using CNL001 (percent quench) ([1]; 50 nM CNL001, second column so headed): 75.649% | YFP fluorescence quenching (percent quench) ([1]; 50 nM CNL002): 76.501% | YFP fluorescence quenching using ABT-126 (percent quench) ([1]; 50 nM abt (ABT-126)): −7.87% | YFP fluorescence quenching using CNL001 (percent quench) ([1]; 100 nM CNL001, first column so headed): 76% | YFP fluorescence quenching using CNL001 (percent quench) ([1]; 100 nM CNL001, second column so headed): 76.329% | YFP fluorescence quenching (percent quench) ([1]; 100 nM CNL002): 79.03% | YFP fluorescence quenching using ABT-126 (percent quench) ([1]; 100 nM abt (ABT-126)): −5.35% | YFP fluorescence quenching using ABT-126 (percent quench) ([1]; 300 nM abt (ABT-126)): −3.67% | YFP fluorescence quenching using CNL001 (percent quench) ([1]; 1 uM CNL001, first column so headed): 76.168% | YFP fluorescence quenching using CNL001 (percent quench) ([1]; 1 uM CNL001, second column so headed): 74.076% | YFP fluorescence quenching (percent quench) ([1]; 1 uM CNL002): 82.85% | YFP fluorescence quenching using ABT-126 (percent quench) ([1]; 1 uM abt (ABT-126)): 3.64% | YFP fluorescence quenching using ABT-126 (percent quench) ([1]; 10 uM abt (ABT-126)): 5.91% | YFP fluorescence quenching (percent quench) ([1]; 10 uM ach (acetylcholine)): −20.07% | YFP fluorescence quenching (percent quench) ([1]; 30 uM ach (acetylcholine)): −16.92% | YFP fluorescence quenching (percent quench) ([1]; 100 uM ach (acetylcholine)): −25.8% | YFP fluorescence quenching (percent quench) ([1]; 300 uM ach (acetylcholine)): −11.21% | YFP fluorescence quenching (percent quench) ([1]; 1 mM ach (acetylcholine)): 9.02% | YFP fluorescence quenching (percent quench) ([1]; 3 mM ach (acetylcholine)): 45% | YFP fluorescence quenching using Varenicline, 3 nM var ([1]; first column): −6.169 | YFP fluorescence quenching using Varenicline, 3 nM var ([1]; second column): −10.445 | YFP fluorescence quenching using Varenicline, 30 nM var ([1]; first column): −9.679 | YFP fluorescence quenching using Varenicline, 30 nM var ([1]; second column): −10.878 | YFP fluorescence quenching using Varenicline, 300 nM var ([1]; first column): −9.572 | YFP fluorescence quenching using Varenicline, 300 nM var ([1]; second column): −8.873 | YFP fluorescence quenching using Varenicline, 500 nM var ([1]; first column): −14.656 | YFP fluorescence quenching using Varenicline, 500 nM var ([1]; second column): −11.304 | YFP fluorescence quenching using Varenicline, 1 uM var ([1]; first column): −13.996 | YFP fluorescence quenching using Varenicline, 1 uM var ([1]; second column): −16.128 | Rheobase Shift Evoked; Rat Hippocampal Neurons, Baseline (rat hippocampal neurons [2]; baseline, no ligand): 40.63 ± 10.50 pA | Rheobase Shift Evoked; Rat Hippocampal Neurons, +CNL002 @ EC90 (rat hippocampal neurons [2]; ligand CNL002 at EC90): 296.9 ± 72.65 pA | Firing Rate Spontaneous; Rat Hippocampal Neurons, Baseline (rat hippocampal neurons [3]; baseline, no ligand): 3.29 ± 0.75 Hz | Firing Rate Spontaneous; Rat Hippocampal Neurons, +CNL002 @ EC90 (rat hippocampal neurons [3]; ligand CNL002 at EC90): 0.71 ± 0.29 Hz
